From patent US20160347802A1 (MAX PLANCK GESELLSCHAFT ZUR FOERDERUNG DER WISSENSCHAFTEN E …, published 2016) come the findings set out here.

The target of experiment [1] is T1, biotinylated recombinant human UNC5B (human, UniProt Q8IZJ1 27-377).
T1 construct: Made in HEK293-6E and immobilised on an SA chip
Kind of experiment: SPR, UNC5B immobilised, Draxin injected at 0 to 18.75nM.
Procedure: (§1) Surface Plasmon Resonance (SPR) experiments were performed on a Biacore 3000 (GE Healthcare) at 25° C. using a SA sensor chip in 0.01 M HEPES, pH 7.4, 0.15 M NaCl, 0.005% Surfactant P20 (HBS-P) running buffer at a flow rate of 30 μl/min. The instrument was used according to manufacturer's instructions.

In experiment [2] the target is T2, human Netrin1, recombinant AVEXIS protein (biotinylated when immobilised) (human, UniProt O95631 25-604).
T2 construct: also called NTN1
Kind of experiment: SPR, Biacore 3000, biotinylated human Netrin1 on SA chip, Draxin injected at 0-18.8 nM.
Procedure: as §1

B1: recombinant human Draxin (R&D systems) (ligand)
chain: GALAPGTPARNLPENHIDLPGPALWTPQASHHRRRGPGKKEWGPGLPSQAQDGAVVTATRQASRLPEAEGLLPEQSPAGLLQDKDLLLGLALPYPEKENRPPGWERTRKRSREHKRRRDRLRLHQGRALVRGPSSLMKKAELSEAQVLDAAMEESSTSLAPTMFFLTTFEAAPATEESLILPVTSLRPQQAQPRSDGEVMPTLDMALFDWTDYEDLKPDGWPSAKKKEKHRGKLSSDGNETSPAEGEPCDHHQDCLPGTCCDLREHLCTPHNRGLNNKCFDDCMCVEGLRCYAKFHRNRRVTRRKGRCVEPETANGDQGSFINV
notes: Bought protein
For B1, in experiment [1], the binding result is reported as “no binding (tested: 18.75 nM)”. In addition, the dissociation constant Kd in experiment [2] lay within 20 to 100 nM.
